Data as given in US8221993, “Methods of detecting methyl transferase activity and methods of screening for methyl transferase activity modulators” (Onco Therapy Science, Inc.).

T1: ZNFN3A1 (SMYD3) (Homo sapiens, UniProt Q9H7B4 SEQ:1-428)
T1 chain: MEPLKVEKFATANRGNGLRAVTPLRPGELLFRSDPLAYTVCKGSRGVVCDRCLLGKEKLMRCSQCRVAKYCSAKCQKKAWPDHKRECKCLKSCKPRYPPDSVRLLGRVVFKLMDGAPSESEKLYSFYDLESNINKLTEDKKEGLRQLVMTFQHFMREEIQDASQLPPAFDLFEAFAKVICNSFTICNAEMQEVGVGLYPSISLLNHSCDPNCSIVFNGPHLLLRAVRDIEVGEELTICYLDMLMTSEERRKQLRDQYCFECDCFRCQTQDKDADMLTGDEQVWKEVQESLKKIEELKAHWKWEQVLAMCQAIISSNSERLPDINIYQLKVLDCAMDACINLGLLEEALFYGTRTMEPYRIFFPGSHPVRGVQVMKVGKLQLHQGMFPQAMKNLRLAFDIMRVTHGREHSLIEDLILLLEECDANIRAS

B1: ZBE2 (Nkx2.8 ZNFN3A1-binding element) (dsDNA)
DNA 1: TTACGCCCTCCTGAAACTTGTCATCCTGAATCTTAGAGGGGCCC
DNA 2: GGGCCCCTCTAAGATTCAGGATGACAAGTTTCAGGAGGGCGTAA
B2: wtTBM (Tcf4-binding motif) (dsDNA)
DNA 1: CCCTTTGATCTTACC
DNA 2: GGTAAGATCAAAGGG

Key:
GST = GST (UniProt P08515 P08515:1-218); test: GST control
Sequence of GST (P08515 whole entry, the tested form may be a part, one chain of several): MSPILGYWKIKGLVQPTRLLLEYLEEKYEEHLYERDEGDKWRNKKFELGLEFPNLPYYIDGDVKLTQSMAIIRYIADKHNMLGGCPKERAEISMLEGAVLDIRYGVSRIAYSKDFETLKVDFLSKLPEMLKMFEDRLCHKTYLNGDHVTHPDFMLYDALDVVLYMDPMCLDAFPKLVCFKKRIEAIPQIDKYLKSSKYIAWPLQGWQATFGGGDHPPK

ZNFN3A1 (SMYD3) [1] = target: T1, ZNFN3A1 (SMYD3); test: in vitro binding assay; inhibited by cold competitor DNA; settings: tags: GST fusion, E. coli
Tcf4 wild-type = Tcf4 wild-type (UniProt Q9NQB0 Q9NQB0:1-619); test: positive control; settings: tags: GST fusion
Sequence of Tcf4 wild-type (Q9NQB0 whole entry, the tested form may be a part, one chain of several): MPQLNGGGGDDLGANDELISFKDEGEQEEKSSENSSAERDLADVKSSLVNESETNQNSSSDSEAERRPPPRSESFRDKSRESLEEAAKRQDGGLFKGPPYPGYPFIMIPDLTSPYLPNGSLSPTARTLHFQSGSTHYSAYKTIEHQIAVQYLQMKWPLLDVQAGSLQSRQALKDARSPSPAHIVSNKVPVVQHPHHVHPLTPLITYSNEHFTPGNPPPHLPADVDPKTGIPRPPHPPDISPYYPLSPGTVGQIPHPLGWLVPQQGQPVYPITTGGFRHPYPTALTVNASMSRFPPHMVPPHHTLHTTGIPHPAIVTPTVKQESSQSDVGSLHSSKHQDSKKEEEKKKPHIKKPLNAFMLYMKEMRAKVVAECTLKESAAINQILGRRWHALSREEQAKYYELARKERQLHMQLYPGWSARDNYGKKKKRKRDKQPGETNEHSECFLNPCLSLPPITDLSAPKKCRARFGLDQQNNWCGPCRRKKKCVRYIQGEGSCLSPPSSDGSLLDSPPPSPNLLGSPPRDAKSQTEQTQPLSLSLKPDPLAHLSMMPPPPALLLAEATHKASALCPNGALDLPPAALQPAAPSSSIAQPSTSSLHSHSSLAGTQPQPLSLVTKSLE

ZNFN3A1 (SMYD3) [2] = target: T1, ZNFN3A1 (SMYD3); test: specificity control; settings: tags: GST fusion, E. coli

Binder	binding result (GST)	binding result (ZNFN3A1 (SMYD3) [1])	binding result (Tcf4 wild-type)	binding result (ZNFN3A1 (SMYD3) [2])
B1	no binding	binds	–	–
B2	no binding	–	binds	no binding
